# In patent EP4582447A1 (Quaerite Biopharm Research (Beijing) Co., Ltd., dated 2025):
# Like-named read-outs stand apart in the source and are kept apart here.
# How the values were obtained:
# [1] = target: T1, Human VEGFA165 (human, UniProt P15692-4 27-191); assay: competition ELISA on coated VEGFA, competitor VEGFR2-ECD-Fc 2 nM
# T1 construct: treated as the same molecule; also called antigen VEGFA
# [2] = target: T1, Human VEGFA165; assay: ELISA, VEGFA coated 0.3 µg/mL, anti-His detection
# [3] = target: T1, Human VEGFA165; assay: phage ELISA, VEGFA coated 0.5 µg/mL, anti-M13(HRP)
# [4] = target: 3% milk powder (negative control); assay: phage ELISA, 3% milk powder coated (negative control), anti-M13(HRP)
# [5] = target: T1, Human VEGFA165; assay: SPR, VEGFA165 on CM5
# [6] = target: T1, Human VEGFA165; assay: SPR Biacore 8K, VEGFA165 amine-coupled on CM5, nanobody as analyte, 1:1 model
# [7] = target: T1, Human VEGFA165; assay: competition ELISA on coated VEGFA, competitor VEGFR2-ECD-Fc 1 nM
# [8] = target: T1, Human VEGFA165; assay: ELISA, VEGFA coated 0.3 µg/mL, anti-His detection; remark: listed apart in the source
# [9] = target: T1, Human VEGFA165; assay: competition ELISA on coated VEGFA, competitor VEGFR2-ECD-Fc 1 nM; remark: listed apart in the source
# [10] = target: T1, Human VEGFA165; assay: cell-based or functional assay
# [11] = target: T1, Human VEGFA165; assay: phage ELISA, VEGFA coated 0.5 µg/mL, anti-M13(HRP)
# T1 sequence (P15692 other isoform, or with tags, fused parts or gaps limits assumed): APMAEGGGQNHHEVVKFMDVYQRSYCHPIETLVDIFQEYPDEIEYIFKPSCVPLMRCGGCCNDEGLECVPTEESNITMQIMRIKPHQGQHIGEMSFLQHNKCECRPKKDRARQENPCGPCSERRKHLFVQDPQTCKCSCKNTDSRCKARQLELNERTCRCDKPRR
Binder,EC50 [2],OD450 [3],OD450 [4],fold difference of KD from the positive control BI-VEGF ab [5],Kd [6],koff [6],kon [6],IC50 [7],Maximum inhibition rate (%) [7],EC50 [8],other results
"V15-2m (VHH, Humanized V15) VHH: EVQLVESGGGLVQPGGSLRLSCAASGRTFASYTMGWFRQAPGKEREFVVAISKGGYKYDSVSLEARFTISRDNSKNTVYLQMNSLRPEDTAVYYCAGTRAYGSSRLRLAETYEYWGQGTLVTVSS",2.04 nM,,,,,,,,,,IC50 [1]: 31.7 nM; Maximum inhibition rate (%) [1]: 84.8%
"V40-4H-2m (VHH, Humanized V40) VHH: EVQLVESGGGLVQPGGSLRLSCAASGRTFTSYTMGWFRQAPGKEREFVVAISKGGYKYNAVSLEARFTISRDNSKNTVYLQMNSLRPEDTAVYYCAATRAYGSSRLRLAKTYEYWGQGTLVTVSS",2.82 nM,,,,,,,,,,
"V43 (VHH, Purified with C-terminal GGGGS-6×His) VHH: QLQLVESGGGSVQPGGSLRLSCEVSGRTFTSYTMGWFRQAPGKEREFVVAISKGGYKYDSVSLEARFTISKDNTKNTVYLQMNSLKPEDTAVYYCAGTRAYGSSRLRLANTYEYWGQGTQVTVSS",,2.5 OD450,0.0519 OD450,< 3 fold,0.193 nM,8.09e-05 s⁻¹,418000 M⁻¹ s⁻¹,6 nM,93.7%,0.53 nM,
"V40-3H-4m (VHH, Humanized V40) VHH: EVQLVESGGGLVQPGGSLRLSCAASGRTFSSYTMGWFRQAPGKEREFVVAISKGGYKYNAVSLEARFTISRDNAKNTVYLQMNSLRPEDTAVYYCASTRAYGSSRLRLAKTYEYWGQGTLVTVSS",2.05 nM,,,,,,,,,,
"V33 (VHH, Purified with C-terminal GGGGS-6×His) VHH: QLQLVESGGGSVQPGGSLRLSCEVSGRTFSSYTMGWFRQAPGKEREFVVAISKGGYKYDSVSLEARFTISKDNTKNTVYLQMNSLKPEDTAVYYCAATRAYGSSRLRLAKTYEYWGQGTQVTVSS",,2.53 OD450,0.0489 OD450,< 3 fold,0.522 nM,0.000168 s⁻¹,323000 M⁻¹ s⁻¹,3.91 nM,96.3%,0.64 nM,
"V36 (VHH, Purified with C-terminal GGGGS-6×His) VHH: QLQLVESGGGSVQPGGSLRLSCEVSGRTFASYTMGWFRQAPGKEREFVVAISKGGYKYDSVSLEARFTISKDNTKNTVYLQMNSLKPEDTAVYYCAGTRAYGSSRLRLADTYEYWGQGTQVTVSS",,2.77 OD450,0.0623 OD450,< 3 fold,0.285 nM,0.00012 s⁻¹,419000 M⁻¹ s⁻¹,4.72 nM,96.3%,0.36 nM,
"V30 (VHH, Purified with C-terminal GGGGS-6×His; also called candidate antibody V30) VHH: QLQLVESGGGSVQPGGSLRLSCEVSGRTFSSYTMGWFRQAPGKGREFVVAISKGGYKYDAVSLEARFTISKDNTKNTVYLQMNSLKPEDTAVYYCAATRAYGSSRLRLAKTYEYWGQGTQVTVSS",,2.68 OD450,0.0436 OD450,< 3 fold,0.214 nM,0.000136 s⁻¹,635000 M⁻¹ s⁻¹,3.54 nM,96.5%,0.6 nM,"IC50 [9]: 5.72 nM; Maximum inhibition rate (%) [9]: 94.8%; IC50 (pM), inhibition of VEGFA-stimulated HUVEC proliferation (CCK-8) [10]: 1270 pM; Maximum inhibition rate (%) of HUVEC proliferation [10]: 87.4%"
"V30-3H-2m (VHH, Humanized V30) VHH: EVQLVESGGGLVQPGGSLRLSCAASGRTFSSYTMGWFRQAPGKGREFVVAISKGGYKYDAVSLEARFTISRDNSKNTVYLQMNSLRPEDTAVYYCAATRAYGSSRLRLAKTYEYWGQGTLVTVSS",1.38 nM,,,,,,,,,,
"V15-4m (VHH, Humanized V15) VHH: EVQLVESGGGLVQPGGSLRLSCAASGRTFASYTMGWFRQAPGKEREFVVAISKGGYKYDSVSLEARFTISRDNAKNTVYLQMNSLRPEDTAVYYCAGTRAYGSSRLRLAETYEYWGQGTLVTVSS",1.42 nM,,,,,,,,,,IC50 [1]: 26 nM; Maximum inhibition rate (%) [1]: 87.2%
"V40-3H-2m (VHH, Humanized V40) VHH: EVQLVESGGGLVQPGGSLRLSCAASGRTFSSYTMGWFRQAPGKEREFVVAISKGGYKYNAVSLEARFTISRDNSKNTVYLQMNSLRPEDTAVYYCAATRAYGSSRLRLAKTYEYWGQGTLVTVSS",1.64 nM,,,,,,,,,,
"V40-4H-4m (VHH, Humanized V40) VHH: EVQLVESGGGLVQPGGSLRLSCAASGRTFTSYTMGWFRQAPGKEREFVVAISKGGYKYNAVSLEARFTISRDNAKNTVYLQMNSLRPEDTAVYYCASTRAYGSSRLRLAKTYEYWGQGTLVTVSS",2.34 nM,,,,,,,,,,
"V31 (VHH, Purified with C-terminal GGGGS-6×His) VHH: QLQLVESGGGSVQPGGSLRLSCEVSGRTFASYTMGWFRQAPGKEREFVVAISKGGYKYDAVSLEARFTISKDNTKNTVYLQMNSLKPEDTAVYYCAGTRAYGSSRLRLAKTYEYWGQGTQVTVSS",,2.67 OD450,0.0363 OD450,< 3 fold,0.62 nM,0.000172 s⁻¹,277000 M⁻¹ s⁻¹,2.07 nM,97.5%,0.67 nM,
V19 (VHH) VHH: QLQLVESGGGSVQPGGSLRLSCEVSGRTFSSYTMGWFRQAPGKEREFVVAISKGGYKYNSVSLEARFTISKDNTKNTVYLQMNSLKPEDTAVYYCAATRAYGSSRLKLANTYEYWGQGTQVTVSS,,,0.0273 OD450,,,,,,,,OD450 [11]: 2.47 OD450
V8 (VHH) VHH: QLQLVESGGGSVQPGGSLRLSCEVSGRTFSSYTMGWFRQAPGKEREFVVAISKGGYKYNTVSLEARFTISKDNTKNTVYLQMNSLKPEDTAVYYCAGTRAYGSSRLKLAETYEYWGQGTQVTVSS,,,0.0236 OD450,,,,,,,,OD450 [11]: 0.924 OD450
V18 (VHH) VHH: QLQLVESGGGSVQPGGSLRLSCEVSGRTFSSYTMGWFRQAPGKEREFVVAISKGGYKYNSVSLEARFTISKDNTKNTVYLQMNSLKPEDTAVYYCAGTRAYGSSRLRLADTYEYWGQGTQVTVSS,,,0.0134 OD450,,,,,,,,OD450 [11]: 2.94 OD450
V22 (VHH) VHH: QLQLVESGGGSVQPGGSLRLSCEVSGRTFSSYTMGWFRQAPGKEREFVVAISKGGYKYDSVSLEARFTISKDNTKNTVYLQMNSLKPEDTAVYYCAATRAYGSSRLKLADTYEYWGQGTQVTVSS,,,0.0353 OD450,,,,,,,,OD450 [11]: 1.64 OD450
V6 (VHH) VHH: QLQLVESGGGSVQPGGSLRLSCEVSGRTFSSYTMGWFRQAPGKEREFVVAISKGGYKYDTVSLEARFTISKDNTKNTVYLQMNSLKPEDTAVYYCAGTRAYGSSRLKLADTYEYWGQGTQVTVSS,,,0.0473 OD450,,,,,,,,OD450 [11]: 1.36 OD450
"V40 (VHH, Purified with C-terminal GGGGS-6×His) VHH: QLQLVESGGGSVQPGGSLRLSCEVSGRTFTSYTMGWFRQAPGKEREFVVAISKGGYKYNAVSLEARFTISKDNTKNTVYLQMNSLKPEDTAVYYCAGTRAYGSSRLRLAKTYEYWGQGTQVTVSS",2.03 nM,3.11 OD450,0.0362 OD450,< 3 fold,0.305 nM,0.000108 s⁻¹,353000 M⁻¹ s⁻¹,7.48 nM,92.2%,0.84 nM,
